Our source for the protein stability index values is the supplement of paper PMC10567573.

Sequences and labels used below:
B1: KRT71 (parent)
chain: ELRNVQDVVEDYKKRYEEEINKRT
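Note: lentivirally expressed fusions sorted by FACS into six bins by GFP to DsRed ratio, PSI derived from sequencing read proportions per bin multiplied by bin number.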

The data set covers variants of B1. Briefly: protein stability index of a GFP-peptide fusion (GPS, HEK-293T) (PSI 1-6); higher = more stable. To be noted: c terminus: a fixed tail appended.
As for ELRNVQDVVEDDKKRYEEEINKRT [Y12D], the protein stability index was determined as 4.2.
In the case of ELRNVQDVVEDKKKRYEEEINKRT [Y12K], the protein stability index is 3.08.
The result for ELRNVQDVVEDCKKRYEEEINKRT [Y12C] reads 4.07.
In the case of ELRNVQDVVEDWKKRYEEEINKRT [Y12W], the protein stability index came out at 3.98.
For the variant ELRNVQDVVEDIKKRYEEEINKRT [Y12I], the protein stability index is 3.13.
The result for ELRNVQDVVEDYKNRYEEEINKRT [K14N] reads 3.58.
Turning to ELRNVQDVVEDYKCRYEEEINKRT [K14C], the protein stability index came out at 3.3.
As to ELRNVQDVVEDYKTRYEEEINKRT [K14T], the protein stability index came to 3.65.
The result for ELRNVQDVVEDYKRRYEEEINKRT [K14R] reads 3.51.
The result for ELRNVQDVVEDYKYRYEEEINKRT [K14Y] reads 3.47; that for ELRNVQDVVEDYKARYEEEINKRT [K14A], 3.17; that for ELRNVQDVVEDYKERYEEEINKRT [K14E], 4.51.
As to ELRNVQDVVEDYKHRYEEEINKRT [K14H], the protein stability index worked out at 4.26.
For the variant ELRNVQDVVEDYKVRYEEEINKRT [K14V], the protein stability index was found to be 4.45.
For the variant ELRNVQDVVEDYKLRYEEEINKRT [K14L], the protein stability index is 2.97.
For the variant ELRNVQDVVEDYKGRYEEEINKRT [K14G], the protein stability index stood at 4.76.
As for ELRNVQDVVEDYKMRYEEEINKRT [K14M], the protein stability index amounted to 3.82.
For ELRNVQDVVEDYKQRYEEEINKRT [K14Q], the protein stability index was 3.49.
As for ELRNVQDVVEDYKKHYEEEINKRT [R15H], the protein stability index worked out at 2.8.
With ELRNVQDVVEDYKKFYEEEINKRT [R15F], the protein stability index turned out to be 3.67.
ELRNVQDVVEDYKKYYEEEINKRT [R15Y]: the protein stability index was found to be 3.43.
The value for ELRNVQDVVEDYKKDYEEEINKRT [R15D] was 3.35; that for ELRNVQDVVEDYKKMYEEEINKRT [R15M] was 4.38.
With ELRNVQDVVEDYKKWYEEEINKRT [R15W], the protein stability index turned out to be 3.67.
As for ELRNVQDVVEDYKKPYEEEINKRT [R15P], the protein stability index was 4.78.
As to ELRNVQDVVEDYKKCYEEEINKRT [R15C], the protein stability index amounted to 4.23.
As for ELRNVQDVVEDYKKNYEEEINKRT [R15N], the protein stability index was 3.48.
For the variant ELRNVQDVVEDYKKEYEEEINKRT [R15E], the protein stability index was found to be 3.49.
Take ELRNVQDVVEDYKKIYEEEINKRT [R15I]: the protein stability index turned out to be 4.28.
In the case of ELRNVQDVVEDYKKLYEEEINKRT [R15L], the protein stability index turned out to be 4.86.
Take ELRNVQDVVEDYKKKYEEEINKRT [R15K]: the protein stability index was 3.22.
The result for ELRNVQDVVEDYKKQYEEEINKRT [R15Q] reads 4.26; that for ELRNVQDVVEDYKKAYEEEINKRT [R15A], 4.63; that for ELRNVQDVVEDYKKTYEEEINKRT [R15T], 4.68.
As to ELRNVQDVVEDYKKVYEEEINKRT [R15V], the protein stability index worked out at 3.05.
The result for ELRNVQDVVEDYKKSYEEEINKRT [R15S] reads 3.63; that for ELRNVQDVVEDYKKRYECEINKRT [E18C], 4.57.
Take ELRNVQDVVEDYKKRYEKEINKRT [E18K]: the protein stability index is 3.03.
As to ELRNVQDVVEDYKKRYEQEINKRT [E18Q], the protein stability index worked out at 3.3.
The result for ELRNVQDVVEDYKKRYELEINKRT [E18L] reads 2.91.
The value for ELRNVQDVVEDYKKRYESEINKRT [E18S] was 3.23.
As to ELRNVQDVVEDYKKRYEAEINKRT [E18A], the protein stability index turned out to be 3.54.
On to ELRNVQDVVEDYKKRYEYEINKRT [E18Y], for which the protein stability index is 3.85.
Consider ELRNVQDVVEDYKKRYEGEINKRT [E18G], for which the protein stability index was 3.16.
For ELRNVQDVVEDYKKRYEREINKRT [E18R], the protein stability index was 4.26.
Take ELRNVQDVVEDYKKRYEFEINKRT [E18F]: the protein stability index turned out to be 3.42.
On to ELRNVQDVVEDYKKRYEDEINKRT [E18D], for which the protein stability index is 3.48.
With ELRNVQDVVEDYKKRYENEINKRT [E18N], the protein stability index was found to be 3.31.
Regarding ELRNVQDVVEDYKKRYETEINKRT [E18T], the protein stability index came to 3.93.
The value for ELRNVQDVVEDYKKRYEPEINKRT [E18P] was 3.98; that for ELRNVQDVVEDYKKRYEIEINKRT [E18I] was 3.07.
On to ELRNVQDVVEDYKKRYEWEINKRT [E18W], for which the protein stability index came to 3.11.
The value for ELRNVQDVVEDYWKRYEEEINKRT [K13W] was 3.34; that for ELRNVQDVVEDYSKRYEEEINKRT [K13S] was 3.51.
In the case of ELRNVQDVVEDYAKRYEEEINKRT [K13A], the protein stability index turned out to be 4.07.
The result for ELRNVQDVVEDYRKRYEEEINKRT [K13R] reads 4.62.
With ELRNVQDVVEDYEKRYEEEINKRT [K13E], the protein stability index was 4.74.
The value for ELRNVQDVVEDYPKRYEEEINKRT [K13P] was 2.97; that for ELRNVQDVVEDYIKRYEEEINKRT [K13I] was 3.27; that for ELRNVQDVVEDYNKRYEEEINKRT [K13N] was 3.34.
The value for ELRNVQDVVEDYGKRYEEEINKRT [K13G] was 3.93; that for ELRNVQDVVEDYCKRYEEEINKRT [K13C] was 2.71; that for ELRNVQDVVEDYFKRYEEEINKRT [K13F] was 4.07.
As for ELRNVQDVVEDYHKRYEEEINKRT [K13H], the protein stability index stood at 3.73.
With ELRNVQDVVEDYQKRYEEEINKRT [K13Q], the protein stability index was 3.71.
In the case of ELRNVQDVVEDYYKRYEEEINKRT [K13Y], the protein stability index is 3.2.
On to ELRNVQDVVEDYMKRYEEEINKRT [K13M], for which the protein stability index worked out at 3.12.
Regarding ELRNVQDVVEDYVKRYEEEINKRT [K13V], the protein stability index was 3.25.
On to ELRNVQSVVEDYKKRYEEEINKRT [D7S], for which the protein stability index worked out at 3.6.
In the case of ELRNVQQVVEDYKKRYEEEINKRT [D7Q], the protein stability index came to 4.58.
On to ELRNVQVVVEDYKKRYEEEINKRT [D7V], for which the protein stability index is 3.23.
In the case of ELRNVQYVVEDYKKRYEEEINKRT [D7Y], the protein stability index was determined as 3.06.
As to ELRNVQDIVEDYKKRYEEEINKRT [V8I], the protein stability index was 3.45.
In the case of ELRNVQDFVEDYKKRYEEEINKRT [V8F], the protein stability index came out at 3.97.
ELRNVQDAVEDYKKRYEEEINKRT [V8A]: the protein stability index is 3.37.
In the case of ELRNVQDEVEDYKKRYEEEINKRT [V8E], the protein stability index worked out at 3.98.
In the case of ELRNVQDNVEDYKKRYEEEINKRT [V8N], the protein stability index was 3.38.
Turning to ELRNVQDPVEDYKKRYEEEINKRT [V8P], the protein stability index came to 3.67.
In the case of ELRNVQDGVEDYKKRYEEEINKRT [V8G], the protein stability index turned out to be 3.49.
Consider ELRNVQDQVEDYKKRYEEEINKRT [V8Q], for which the protein stability index is 4.19.
For ELRNVQDLVEDYKKRYEEEINKRT [V8L], the protein stability index worked out at 4.3.
For the variant ELRNVQDSVEDYKKRYEEEINKRT [V8S], the protein stability index was found to be 4.53.
The value for ELRNVQDMVEDYKKRYEEEINKRT [V8M] was 3.23.
For the variant ELRNVQDHVEDYKKRYEEEINKRT [V8H], the protein stability index stood at 2.88.
The value for ELRNVQDCVEDYKKRYEEEINKRT [V8C] was 3.77; that for ELRNVQDWVEDYKKRYEEEINKRT [V8W] was 3.73; that for ELRNVQDKVEDYKKRYEEEINKRT [V8K] was 3.43.
In the case of ELRNVQDDVEDYKKRYEEEINKRT [V8D], the protein stability index amounted to 4.42.
For the variant ELRNVQDVVEDYKKRYEEFINKRT [E19F], the protein stability index was 3.36.
On to ELRNVQDVVEDYKKRYEEHINKRT [E19H], for which the protein stability index stood at 3.73.
In the case of ELRNVQDVVEDYKKRYEEAINKRT [E19A], the protein stability index came out at 3.94.
The value for ELRNVQDVVEDYKKRYEEDINKRT [E19D] was 3.24; that for ELRNVQDVVEDYKKRYEEGINKRT [E19G] was 3.65; that for ELRNVQDVVEDYKKRYEECINKRT [E19C] was 3.9.
